Reference: US20060058231A1 (Xencor, published 2006)

T1: BMPRII receptor-Fc fusion (UniProt Q13873 27-151, limits assumed)
T1 construct: BMP receptor-Fc fusion used at 5 ug/mL
T1 sequence (looked up): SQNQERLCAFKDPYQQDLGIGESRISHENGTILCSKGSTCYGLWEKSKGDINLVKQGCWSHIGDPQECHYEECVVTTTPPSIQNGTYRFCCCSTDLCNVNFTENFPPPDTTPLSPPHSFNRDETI

T2: BMPRIb receptor-Fc fusion (UniProt O00238 14-126)
T2 construct: BMP receptor-Fc fusion used at 5 ug/mL; also called ALK-6
T2 sequence (looked up): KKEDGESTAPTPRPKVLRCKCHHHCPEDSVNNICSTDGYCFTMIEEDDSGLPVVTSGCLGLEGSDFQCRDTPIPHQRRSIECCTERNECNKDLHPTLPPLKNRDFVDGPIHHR


Key:
Experiment in all cases: ELISA-like plate assay, captured BMP-7 from conditioned media, receptor-Fc detection
[1] = biological target: T3, ActRIIa receptor-Fc fusion (UniProt P27037 20-134, limits assumed)
T3 construct: BMP receptor-Fc fusion used at 5 ug/mL

[2] = biological target: T1, BMPRII receptor-Fc fusion
[3] = biological target: T4, BMPRIa receptor-Fc fusion (UniProt P36894 24-152, limits assumed)
T4 construct: also called ALK-3

[4] = biological target: T2, BMPRIb receptor-Fc fusion

T3 sequence (P27037 20-134 limits assumed): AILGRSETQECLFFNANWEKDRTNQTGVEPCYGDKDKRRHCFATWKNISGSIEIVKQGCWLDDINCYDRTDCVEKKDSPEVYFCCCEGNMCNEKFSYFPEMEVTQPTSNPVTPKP
T4 sequence (P36894 24-152 limits assumed): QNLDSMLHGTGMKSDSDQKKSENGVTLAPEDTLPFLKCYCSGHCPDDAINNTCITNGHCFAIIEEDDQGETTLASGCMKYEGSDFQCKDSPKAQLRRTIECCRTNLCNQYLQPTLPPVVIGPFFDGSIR

Row | Binder | ActRIIa binding (relative to wild type = 1.0) [1] | BMPRII binding (relative to wild type = 1.0) [2] | BMPRIa binding (relative to wild type = 1.0) [3] | BMPRIb binding (relative to wild type = 1.0) [4]
1 | BMP-7 variant Q53S (ligand, In conditioned media; numbering on mature BMP-7) STGGKQRSQNRSKTPKNQEALRMASVAENSSSDQRQACKKHELYVSFRDLGWSDWIIAPEGYAAYYCEGECAFPLNSYMNATNHAIVQTLVHFINPETVPKPCCAPTQLNAISVLYFDDSSNVILKKYRNMVVRACGCH | 1.04 relative to wild type | 1.26 relative to wild type | 0.66 relative to wild type | 0.68 relative to wild type
2 | BMP-7 variant W55R (ligand, In conditioned media; numbering on mature BMP-7) STGGKQRSQNRSKTPKNQEALRMASVAENSSSDQRQACKKHELYVSFRDLGWQDRIIAPEGYAAYYCEGECAFPLNSYMNATNHAIVQTLVHFINPETVPKPCCAPTQLNAISVLYFDDSSNVILKKYRNMVVRACGCH | 1.2 relative to wild type | 1.52 relative to wild type | 1.75 relative to wild type | 2.17 relative to wild type
3 | BMP-7 variant V26E (ligand, In conditioned media; numbering on mature BMP-7) STGGKQRSQNRSKTPKNQEALRMASEAENSSSDQRQACKKHELYVSFRDLGWQDWIIAPEGYAAYYCEGECAFPLNSYMNATNHAIVQTLVHFINPETVPKPCCAPTQLNAISVLYFDDSSNVILKKYRNMVVRACGCH | 1.02 relative to wild type | 0.73 relative to wild type | 1.02 relative to wild type | 1.38 relative to wild type
4 | BMP-7 variant R48N (ligand, In conditioned media; numbering on mature BMP-7) STGGKQRSQNRSKTPKNQEALRMASVAENSSSDQRQACKKHELYVSFNDLGWQDWIIAPEGYAAYYCEGECAFPLNSYMNATNHAIVQTLVHFINPETVPKPCCAPTQLNAISVLYFDDSSNVILKKYRNMVVRACGCH | 0.93 relative to wild type | 0.13 relative to wild type | 1.87 relative to wild type | 0.43 relative to wild type
5 | BMP-7 variant R129S (ligand, In conditioned media; numbering on mature BMP-7) STGGKQRSQNRSKTPKNQEALRMASVAENSSSDQRQACKKHELYVSFRDLGWQDWIIAPEGYAAYYCEGECAFPLNSYMNATNHAIVQTLVHFINPETVPKPCCAPTQLNAISVLYFDDSSNVILKKYSNMVVRACGCH | 0.62 relative to wild type | 0.26 relative to wild type | 0.32 relative to wild type | 0.37 relative to wild type
6 | BMP-7 variant V26N (ligand, In conditioned media; numbering on mature BMP-7) STGGKQRSQNRSKTPKNQEALRMASNAENSSSDQRQACKKHELYVSFRDLGWQDWIIAPEGYAAYYCEGECAFPLNSYMNATNHAIVQTLVHFINPETVPKPCCAPTQLNAISVLYFDDSSNVILKKYRNMVVRACGCH | 1 relative to wild type | 0.97 relative to wild type | 1.14 relative to wild type | 1.43 relative to wild type
7 | BMP-7 variant R134K (ligand, In conditioned media; numbering on mature BMP-7) STGGKQRSQNRSKTPKNQEALRMASVAENSSSDQRQACKKHELYVSFRDLGWQDWIIAPEGYAAYYCEGECAFPLNSYMNATNHAIVQTLVHFINPETVPKPCCAPTQLNAISVLYFDDSSNVILKKYRNMVVKACGCH | 1.18 relative to wild type | 0.91 relative to wild type | 1.05 relative to wild type | 1.11 relative to wild type
8 | BMP-7 variant R48H (ligand, In conditioned media; numbering on mature BMP-7) STGGKQRSQNRSKTPKNQEALRMASVAENSSSDQRQACKKHELYVSFHDLGWQDWIIAPEGYAAYYCEGECAFPLNSYMNATNHAIVQTLVHFINPETVPKPCCAPTQLNAISVLYFDDSSNVILKKYRNMVVRACGCH | 1.02 relative to wild type | 0.58 relative to wild type | 3.15 relative to wild type | 3.58 relative to wild type
9 | BMP-7 variant V26G (ligand, In conditioned media; numbering on mature BMP-7) STGGKQRSQNRSKTPKNQEALRMASGAENSSSDQRQACKKHELYVSFRDLGWQDWIIAPEGYAAYYCEGECAFPLNSYMNATNHAIVQTLVHFINPETVPKPCCAPTQLNAISVLYFDDSSNVILKKYRNMVVRACGCH | 1.07 relative to wild type | 1 relative to wild type | 1.08 relative to wild type | 1.66 relative to wild type
10 | BMP-7 variant R48Q (ligand, In conditioned media; numbering on mature BMP-7) STGGKQRSQNRSKTPKNQEALRMASVAENSSSDQRQACKKHELYVSFQDLGWQDWIIAPEGYAAYYCEGECAFPLNSYMNATNHAIVQTLVHFINPETVPKPCCAPTQLNAISVLYFDDSSNVILKKYRNMVVRACGCH | 0.8 relative to wild type | 0.15 relative to wild type | 1.06 relative to wild type | 0.85 relative to wild type

Results, then the binder that gave them:

Row | ActRIIa binding (relative to wild type = 1.0) [1] | BMPRII binding (relative to wild type = 1.0) [2] | BMPRIa binding (relative to wild type = 1.0) [3] | BMPRIb binding (relative to wild type = 1.0) [4] | Binder
11 | 1.15 relative to wild type | 0.97 relative to wild type | 0.77 relative to wild type | 0.79 relative to wild type | BMP-7 variant S77T (ligand, In conditioned media; numbering on mature BMP-7) STGGKQRSQNRSKTPKNQEALRMASVAENSSSDQRQACKKHELYVSFRDLGWQDWIIAPEGYAAYYCEGECAFPLNTYMNATNHAIVQTLVHFINPETVPKPCCAPTQLNAISVLYFDDSSNVILKKYRNMVVRACGCH
12 | 1.13 relative to wild type | 1.86 relative to wild type | 0.93 relative to wild type | 1.16 relative to wild type | BMP-7 variant R129D (ligand, In conditioned media; numbering on mature BMP-7) STGGKQRSQNRSKTPKNQEALRMASVAENSSSDQRQACKKHELYVSFRDLGWQDWIIAPEGYAAYYCEGECAFPLNSYMNATNHAIVQTLVHFINPETVPKPCCAPTQLNAISVLYFDDSSNVILKKYDNMVVRACGCH
13 | 0.53 relative to wild type | 0.22 relative to wild type | 0.67 relative to wild type | 0.17 relative to wild type | BMP-7 variant V123G (ligand, In conditioned media; numbering on mature BMP-7) STGGKQRSQNRSKTPKNQEALRMASVAENSSSDQRQACKKHELYVSFRDLGWQDWIIAPEGYAAYYCEGECAFPLNSYMNATNHAIVQTLVHFINPETVPKPCCAPTQLNAISVLYFDDSSNGILKKYRNMVVRACGCH
14 | 1.12 relative to wild type | 0.78 relative to wild type | 0.69 relative to wild type | 0.77 relative to wild type | BMP-7 variant R129K (ligand, In conditioned media; numbering on mature BMP-7) STGGKQRSQNRSKTPKNQEALRMASVAENSSSDQRQACKKHELYVSFRDLGWQDWIIAPEGYAAYYCEGECAFPLNSYMNATNHAIVQTLVHFINPETVPKPCCAPTQLNAISVLYFDDSSNVILKKYKNMVVRACGCH
15 | 1.69 relative to wild type | 1.25 relative to wild type | 0.92 relative to wild type | 0.33 relative to wild type | BMP-7 variant W52A (ligand, In conditioned media; numbering on mature BMP-7) STGGKQRSQNRSKTPKNQEALRMASVAENSSSDQRQACKKHELYVSFRDLGAQDWIIAPEGYAAYYCEGECAFPLNSYMNATNHAIVQTLVHFINPETVPKPCCAPTQLNAISVLYFDDSSNVILKKYRNMVVRACGCH
16 | 1.17 relative to wild type | 0.98 relative to wild type | 0.81 relative to wild type | 0.94 relative to wild type | BMP-7 variant S77E (ligand, In conditioned media; numbering on mature BMP-7) STGGKQRSQNRSKTPKNQEALRMASVAENSSSDQRQACKKHELYVSFRDLGWQDWIIAPEGYAAYYCEGECAFPLNEYMNATNHAIVQTLVHFINPETVPKPCCAPTQLNAISVLYFDDSSNVILKKYRNMVVRACGCH
17 | 1.1 relative to wild type | 1.4 relative to wild type | 0.89 relative to wild type | 1.03 relative to wild type | BMP-7 variant R129N (ligand, In conditioned media; numbering on mature BMP-7) STGGKQRSQNRSKTPKNQEALRMASVAENSSSDQRQACKKHELYVSFRDLGWQDWIIAPEGYAAYYCEGECAFPLNSYMNATNHAIVQTLVHFINPETVPKPCCAPTQLNAISVLYFDDSSNVILKKYNNMVVRACGCH
18 | 1 relative to wild type | 0.91 relative to wild type | 0.58 relative to wild type | 0.79 relative to wild type | BMP-7 variant S77P (ligand, In conditioned media; numbering on mature BMP-7) STGGKQRSQNRSKTPKNQEALRMASVAENSSSDQRQACKKHELYVSFRDLGWQDWIIAPEGYAAYYCEGECAFPLNPYMNATNHAIVQTLVHFINPETVPKPCCAPTQLNAISVLYFDDSSNVILKKYRNMVVRACGCH
19 | 0.45 relative to wild type | 1.46 relative to wild type | 2.05 relative to wild type | 1.81 relative to wild type | BMP-7 variant Y44N (ligand, In conditioned media; numbering on mature BMP-7) STGGKQRSQNRSKTPKNQEALRMASVAENSSSDQRQACKKHELNVSFRDLGWQDWIIAPEGYAAYYCEGECAFPLNSYMNATNHAIVQTLVHFINPETVPKPCCAPTQLNAISVLYFDDSSNVILKKYRNMVVRACGCH
20 | 0.41 relative to wild type | 0.82 relative to wild type | 0.35 relative to wild type | 0 relative to wild type | BMP-7 variant W55N (ligand, In conditioned media; numbering on mature BMP-7) STGGKQRSQNRSKTPKNQEALRMASVAENSSSDQRQACKKHELYVSFRDLGWQDNIIAPEGYAAYYCEGECAFPLNSYMNATNHAIVQTLVHFINPETVPKPCCAPTQLNAISVLYFDDSSNVILKKYRNMVVRACGCH
